Residue numbers refer to the chain shown, from its start. Names and notes keep the numbering of the source. Values belong to the binder of their own block, whether it stands above or below them.
Columns and labels:
[1] = biological target: GST-L4 (UniProt P36578 1-427); assay: pull-down
[2] = biological target: GST-L3 (UniProt P39023 1-403); assay: pull-down

- binding result [1]: binds
- binding result [2]: binds
B1: His-G5(1–739) W14A (domain or fragment)
chain: MGQEPRTLPPSPNAYCARCSDAVPGGLFGFAARTSVFLVRVGPGAGESPGTPPFRVIGELVGHTERVSGFTFSHHPGQYNLCATSSDDGTVKIWDVETKTVVTEHALHQHTISTLHWSPRVKDLIVSGDEKGVVFCYWFNRNDSQHLFIEPRTIFCLTCSPHHEDLVAIGYKDGIVVIIDISKKGEVIHRLRGHDDEIHSIAWCPLPGEDCLSINQEETSEEAEITNGNAVAQAPVTKGCYLATGSKDQTIRIWSCSRGRGVMILKLPFLKRRGGGIDPTVKERLWLTLHWPSNQPTQLVSSCFGGELLQWDLTQSWRRKYTLFSASSEGQNHSRIVFNLCPLQTEDDKQLLLSTSMDRDVKCWDIATLECSWTLPSLGGFAYSLAFSSVDIGSLAIGVGDGMIRVWNTLSIKNNYDVKNFWQGVKSKVTALCWHPTKEGCLAFGTDDGKVGLYDTYSNKPPQISSTYHKKTVYTLAWGPPVPPMSLGGEGDRPSLALYSCGGEGIVLQHNPWKLSGEAFDINKLIRDTNSIKYKLPVHTEISWKADGKIMALGNEDGSIEIFQIPNLKLICTIQQHHKLVNTISWHHEHGSQPELSYLMASGSNNAVIYVHNLKTVIESSPESPVTITEPYRTLSGHTAKITSVAWSPHHDGRLVSASYDGTAQVWDALREEPLCNFRGHRGRLLCVAWSPLDPDCIYSGADDFCVHKWLTSMQDHSRPPQGKKSIELEKKRLSQPKA

- binding result [1]: binds
- binding result [2]: binds
B2: His-G5(1–739) Y15A (domain or fragment)
chain: B1 chain with A14W, Y15A

— article PMC5041490 (Nucleic Acids Research, 2016)
